Results reported in the nanobody polyreactivity screen of Harvey et al. (2022).

Assay: yeast display, Sf9 membrane polyspecificity reagent, FACS + sequencing; frameworks hold sequencing errors
How it was run: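 Nanobodies from a synthetic yeast display library (Saccharomyces cerevisiae BJ5465), induced 36–48 hours with galactose, were stained 1 hour at 4 °C with 10% biotinylated, detergent-solubilized Sf9 membrane reagent, enriched on streptavidin microbeads, then FACS-sorted. Anti-HA (expression) and streptavidin (reagent binding) fluorescence set low and high (top ~1%) gates. Polyreactivity labels come from the gate of origin. Genes were colony-PCR amplified, MiSeq 2 × 250 sequenced and filtered by CDR length.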

Sequence	polyreactivity (PSR sort gate)
QVQLQESGGGLVQAGGSLRLSCAASGTISDSGLMGWYRQAPGKERELVAGISSGGITNYADSVKGRFTISRDNAKNTVYLQMNSLKPDDTAVYWGQGTQVTVSS	low polyreactivity
QVQLQESGGGLVQAGGSLRLSCAASGTISPLPAMGWYRQAPGKEREFVAGIDTGAITNYADSVKGRFTISRDNAKITVYLQMNSLKPEDTAVYYCAVFPAAYDYYERYYTYWGQGTQVTVSS	low polyreactivity
QVQLQESGGGLVQAGGSLRLSCAASGTISPLPAMGWYRQAPGKEREFVAGIDTGAITNYADSVKGRFTISRDNAKNTVYLQMNSLKPEDTAVYYCAADLFLDGSSQYAPNWWPDGWNTYRLLGGYWGQGTQVTVSS	low polyreactivity
QVQLQESGGGLVQAGGSLRLSCAASGTISPLPAMGWYRQAPGKEREFVAGIDTGAITNYADSVKGRFTISRDNAKNTVYLQMNSLKPEDTAVYYCAVFPAAYDYYERYYTYWGQGTQVTVSS	high polyreactivity
QVQLQESGGGLVQAGGSLRLSCAASGTISPLPAMGWYRQAPGKEREFVAGIDTGAITNYADSVKGRFTISRDNAKNTVYLQMNSLKPVDTAVYYCAVFPAAYDYYERYYTYWGQGTQVTVSS	low polyreactivity
QVQLQESGGGLVQAGGSLRLSCAASGTISQEDWKGWYRQAPGKEREFVAAIGLGSNTNYADSLKGRFTISRDNAKNTVYLQMNSLKQEDTAVYYCAVSVWQYSDHVYRGQGTQVTVSS	low polyreactivity
QVQLQESGGGLVQAGGSLRLSCAASGTISVHASMGWYRQAPGKERELVAGITDGANTYYADSVKGRFTISRDNSKNTVYLQMNSLKPEDTAVYYCAAYYGTEVHFTYWGQGTQVTVSS	low polyreactivity
QVQLQESGGGLVQAGGSLRLSCAASGTISYAPHMGWYRQAPGKERELVAGITIVGTTYYADSVKGRFTISRDNAKNTVYLQMNSLSPGDTAVYYCAAHSEQYTPFYYWGQGTQVTVSS	low polyreactivity
QVQLQESGGGLVQAGGSLRLSCAASGTITVLYKMGWFRQAPGKEREFFASINYGTSTYYADSVKGRFTVSRDSAKNTVYLQMISLKPEDTAVYYGAAAYRWQDVYRYWGQVTQVTVSS	low polyreactivity
QVQLQESGGGLVQAGGSLRLSCAASGTITVLYKMGWFRQAPGKEREFVASINYGTSTYYADSVKGRFTVSRDSAKNSVYLQMNSLKPEDTAVYYCAAAYRWQDVYRYWGQGTQVTVSS	low polyreactivity
QVQLQESGGGLVQAGGSLRLSCAASGYISHADEMGWYRQAPGKDHELVASISNGGSTNYADSVKGRFTISRDHAKNTVYLQMNSLNSEDTAVYYCAAWTGQVDIHYYWGQGTQVTVSS	low polyreactivity
QVQLQESGGGLVQAGGSLRLSCAASGYISHADEMGWYRQAPGKEHELVASISNGGSTNYADSVKGRFTISRDNAKNPVNLQMNSLKSEDTAVYYCAALTGQVAIHYYWGQGTQVTVSS	low polyreactivity
QVQLQESGGGLVQAGGSLRLSCAASGYISSWYPMGWYRQAPGKEREFVATIAPRATTYYADSVKGRFTISRDYAKNTVYLQMNSLKPEDTAVYYCAAGPENNDVYSYWGQGTQVTVSS	low polyreactivity
QVQLQESGGGLVQAGGSLRLSCAASGYISTFSSEMGWYRQAPGKERELVASIAPGCTTSYADSVKGRFTISRDNAKNTVYLQMNSLKPEDTAVYYCAVDYTVPASFGYWGQGTQVTVSS	high polyreactivity
QVQLQESGGGLVQAGGSLRLSCAASGYISWYSEMGWYRQAPGKEREFVATITCGTTTNYAVSVKGRFTISRDNAKNTVYLQKNSLKPEDTAVYYCAVHDARHYEFDYWGQGTQVTVSS	high polyreactivity
QVQLQESGGGLVQAGGSLRLSCAASSNNSTLDVKGWYRQAPGKEREFVASIGSGGITNYADSVKGRFTISRDNAKNTVYLQMNSLKPEDTAVYYCAVLNQAYTDLIYWGQGTQVTVSS	high polyreactivity
QVQLQESGGGLVQAGGSLRLSCAESGSISRYYDMGWYRQAPGKEREFVAGISGGAITYYADSVKGRFTISRDNAKNTVYLQMNSLKPEDTAVYYCAADTGVYQYHSYWGQGTQVTVSS	low polyreactivity
QVQLQESGGGLVQAGGSLRLSCAESGTIFRISDMGSYRQAPGKEREFVASITYGANTYYADSGKGRFTISRDNAKNTVYLQMNSLKPEDTAVYYCAVPPVKETILDYWGQGTQVTVCS	low polyreactivity
QVQLQESGGGLVQAGGSLRLSCASSGSISGPHVMGWYRQAPGKEREFVAAINVGANTYYADNVKGRFTISRDNAKNTVYLQMNSLKPEDTAVYYCAAVYYGDIGHEYWGQGTQVTVSC	low polyreactivity
QVQLQESGGGLVQAGGSLRLSCASSGTISPLPAMGWYRQAPGKEREYVAGIDTGAITNYADSVKGRFTISRDNAKNTVYLQMNSLQPEDTAVYYCAVFPAAYDYYESYYTYWGQGTQVTVSS	low polyreactivity
QVQLQESGGGLVQAGGSLRLSCAVSGTIFFPLDMGWYRQAPGRELEYVAAIAEGTSTYYADSVKGRFTISRDNAKNTVYPQMYSLKPEDTAVYYCAAYRSTPQQFHYWGQGTQVTVSS	high polyreactivity
QVQLQESGGGLVQAGGSLRLSCEASCYISDVNDMGWYRQAPGKEREFVAGFGYGGITNYADSVKGRFTISRDNAKNTVYLQMNSLKPKDSAVYNCAVHWGPDRGLYYWGQGTQVTVSS	high polyreactivity

Sequence	polyreactivity (PSR sort gate)
QVQLQESGGGLVQAGGSLRMSCAARGTIFWQWAMGWYCQAPGKERELVASISSGGTTYHADSVKGRFTISRDNAKNTVYLQMNSLKPEDTAVYYCNAPNWSVAYVYITQEMDYWGQGTQVTVSS	low polyreactivity
QVQLQESGGGLVQAGGSLRMSCASSGTIFRISDMGSYRQAPGKDSEFVAAITYGANTYYADSGKGRFTISRDNAKNTVYLQMNSLKPEDTAVYYCAVPPVKETILDYWGQGTQVTVSS	low polyreactivity
QVQLQESGGGLVQAGGSLRPRCAPAGTIFLSVNMGWYRHAPGEEREFVASITQGATTNYADSLIGRFTISRDNAKNTVYLQMNCQKPEDTAVYYCAAYPRFYGGKYGEYGYWGQGTQVTVSS	high polyreactivity
QVQLQESGGGLVQAGGSLRPSCAASGSISDGVPMGWYRQAPGEERELVATTVLGATTNYADSVKGRFTISRGNAKYTVYLQMNSLKPEETAVYYCAAPLRYDKGFSYWGQGTQVTVSS	low polyreactivity
QVQLQESGGGLVQAGGSLRQSCAASGSIFKVVDMGLYRQAPAKEREFVATIGEGGNTYYADSVKGRFTISRDNAKNTVYLQMNSLKPEDTAVYFYAVVLGSSYSYTYWGQGTQVTVSS	low polyreactivity
QVQLQESGGGLVQAGGSLRQSCASSGYIFPYNSMGWYRQAPGKERGLVACIAAGTTTNYADSVKGRFTISRDNAKNTVYLQMNSLKPEDAAVYYCAALNAFNTGHWYWGQGTQVTVSS	low polyreactivity
QVQLQESGGGLVQAGGSLRQSCEASGYIFPYYSMGWYRQAPGKERGLVACIAAGTTTNYADSVKVRFTISRDNAKNTVYLQMNSLKPEDAAVYYCAALNAFNPGHWYWGQGSQVTVSS	low polyreactivity
QVQLQESGGGLVQAGGSLRQSYAASGYIFPSLAMGWYRQAPGKEREFVAAIGRGSTNNYADSVKGRFTISRDNAKNTAFQHMKSLKPEDTAVYYCAAAASPLTRHLYWGQGTQVSVSS	low polyreactivity
QVQLQESGGGLVQAGGSLRQSYAASGYIFPSLAMGWYRQAPGKEREFVAAIGRGSTNNYADSVKGRFTISRDNAKNTAYLQMNSLKPEDTAVYYCAAAASPLNRHLYWGQGTQVTVSS	low polyreactivity
QVQLQESGGGLVQAGGSLRQSYAASGYIFPSLAMGWYRQAPGKEREFVAAIGRGSTNNYEDSVKGRFTISRDNAKNTAYQQMNRLKPEDTAVYYCAAAASPLTRDLYWGQGTQVTVSS	low polyreactivity
QVQLQESGGGLVQAGGSLRQSYAASGYIFPSLAMGWYRQAPGKESEFVAAIGRGSTNNYADSVKGRFTISRDNAKNTAYQQMNSLKPEDTAVYYCAAAASPLTRHLYWGQGTQVTVSS	low polyreactivity
QVQLQESGGGLVQAGGSLRQSYAASGYIFPYLAMGWYRQAPGKEREFVAAIGRGSTNNYADSVKGRFTISRDNAKNTAYQQMNSLKPEDTAVYYCAGAASPLTRHLYWGQGNQVTVSS	low polyreactivity
QVQLQESGGGLVQAGGSLRRSCAASGSIFSHWAMGWYRQTPGKERELVASITAGGNTNYADSVKGRFTISRDNAKNTVYLPMDSLKPEDTAVYYCAADGYYGAWDLEYYYWGQGTQVTVSS	low polyreactivity
QVQLQESGGGLVQAGGSMRLSCAASGSISELRPMGWYRQAPCKQRELDAGISTGGSTNYADSVKGRFTISRDNAKNTVYLQMNSLKPEDTAVYYCASASYGEGTYDYWGQGTQVTVRS	high polyreactivity
QVQLQESGGGLVQAGGSPRLSCAASDNIFPDSVMCWYRQAPGKERELVATIGFGATTNYADSVKGRFTISRDNAKNTVYLQMNSLKPEDTAVYYCAADPLIYEYFCYWGQGSQVTVSS	low polyreactivity
QVQLQESGGGLVQAGGSQRLSCAASGYIFYFQYMGWYRQAPGKEREFVAAISDGANTNYADSVKGRFTISRDNAKNTEYLQMNSLKPEDTAVYYCAVYADEKYYYIYWGQGTQVTVSS	low polyreactivity
QVQLQESGGGLVQAGGTITLGYYMGWYRQAPGKEREFVAGIDTGAITYYADSVKGRFTNSRDNAKNTVYLQMNSLKPEDTAVYYCAAIQTHTYAHSYCGQGTQVTVSS	high polyreactivity
QVQLQESGGGLVQAGGTLRLSCAASGSIYDDTYMGWYRQAPGKERELVATIDSGSTTNYADSVKGRITISRDNAKKTVYLQMNSLKPEDTAVYYCAAADSHIDYFDYWGQGTQVTVSS	low polyreactivity
QVQLQESGGGLVQAGGTLRLSCAVSGTIFFPLDMGWYRQAPGREREYVAAIAEGTSTYYADSVKGRFTISRDNAKNTVFPQMYSLKPEDTAVYYCAAYRSTPQQFHYWGQGTQVTVSS	high polyreactivity
QVQLQESGGGLVQARGSLRLSCAASGYISHADEMGWYRQAPGKEHELVASFRNGGSTNYADSVKGRFTISRDNAKNTVYLQMNSLKSEDTAVYYCAAWTGQVDIHSYWCQGTQVTVSS	low polyreactivity
QVQLQESGGGLVQASGSIFHEPNMCWYRQAPGKERELVAGISSGANTYYADSVKGRFTISRDNAKNTVYLQMNSLKPEDTAVYHCAVVVHLYTELRYWGQDTQVTVSS	high polyreactivity
QVQLQESGGGLVQASGSLRLSCASSGNIFPDYVMAWYRLAPGKEREFVANITGGSTTNYADSVKGRFTISRDNAKNTVDLQMNSLTPEDTAVYYCAVNFGTVVLYLYWGQGTQVSVSS	high polyreactivity
